Experimental findings from publication PMC5256923, “RNA and DNA Targeting by a Reconstituted Thermus thermophilus Type III-A CRISPR-Cas System” (PLoS ONE, 2017) are described below.

Experiment [1] addresses T. thermophilus Csm5, His10 tag cleaved off with HRV 3C protease (T. thermophilus) (UniProt Q53W18). Nature of the experiment: native MS; native nanoESI-MS, positive ion mode, about 5 uM of the co-expressed and co-purified TthCsm complex (with crRNA) exchanged into 1 M ammonium acetate, 5% glycerol.
For experiment [2], the target named is T1, T. thermophilus Csm5, His10 tag cleaved off with HRV 3C protease (T. thermophilus, UniProt Q53W18 1-397).
T1 construct: Csm5 of Thermus thermophilus (locus TTHB151), codon-optimized gene; Same construct as m1 after 3C cleavage; also called TTHB151; source: E. coli BL21(λDE3), co-expressed with the other Csm subunits, Cas6A and crRNA 4.5; co-purified in the TthCsm complex (Ni-NTA, 3C cleavage, Ni-NTA, Superose 6)
T1 sequence (looked up): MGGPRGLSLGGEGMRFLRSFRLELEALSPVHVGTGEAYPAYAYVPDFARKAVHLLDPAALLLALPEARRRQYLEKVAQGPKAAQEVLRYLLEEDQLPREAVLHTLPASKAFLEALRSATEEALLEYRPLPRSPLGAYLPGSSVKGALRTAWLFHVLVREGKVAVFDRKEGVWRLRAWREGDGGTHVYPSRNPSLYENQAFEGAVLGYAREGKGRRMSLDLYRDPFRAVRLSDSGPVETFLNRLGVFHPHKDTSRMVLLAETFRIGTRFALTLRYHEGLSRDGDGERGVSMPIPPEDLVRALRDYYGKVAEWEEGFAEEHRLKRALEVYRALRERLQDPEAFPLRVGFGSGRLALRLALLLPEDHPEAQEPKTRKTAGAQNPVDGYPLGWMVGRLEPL
The description is as above. To be noted: both partners purified.

Values joined by “and” are separate entries in the source; they are usually repeats but may differ in a detail not shown here. Equal values may be shown once.

One may read the stoichiometry N as a count of units in the complex or per binding partner.

For the molecule T. thermophilus Csm2 (natural protein), in experiment [1], the stoichiometry N was 3 and 4.

T. thermophilus Csm3 (natural protein): the stoichiometry N in experiment [1] was 6 and 4.

In experiment [1], “T. thermophilus Csm4 (from UniProt Q53W19 1-805) (natural protein)” yielded a stoichiometry N of 1.

B1: T. thermophilus Cas10/Csm1 (natural protein, UniProt Q53W19 1-805, looked up)
chain: MLGDGLSVALAGLLHDVGKLYSRARWGERDDQVPDRTHTAYTAHFVREHAGLFRGAGLDPDWLARTASRHHEGWRDRPQYRPETPEEWCVALADTYASKEREEGEGGGSPPEVPLSPPFRRLLLGGEEGREGGYSPVGAGGRVGLEAGGLYPEERPNVSKDVYKRLLERLEGRLEEMARFSLGKEALVLNLALALQETLSLVPSDTQSEPDVSLYDHLRLTAAIAHALWLFHGGSPSAQNLRQDGEKFLLVVGDMGGIQGHIYRIAGAEAGVGGIAKRLRARSLEVSLAAEAMALGLLWRLGLTSLNRILGAGGKFYLLLPNTEEARAALEGTREAWGRWALKRGGSLVPHLAWVAFRGQDFRDFAALLKRLHEALAREKLRPFAFLASTGGVLGAPLRPCAACGLEPARRDEPGSLCPDCEREAALGARLPRSDRVGFFLEEAPRPYLDFPGLKVGLGGPLEGAFHLFRARLDFAPWPDPSEAKPLLGHLPRVEHALKAKGWSLEAYRAWAEEEGLLEDEEPHPEKVLTFAELAALSEGAPYLGALMLDADRMGEAFATGFRREGRDLATPSRLAALSRTLEVFFTTEVLTLLEEPRRYRERLGWDDLEAQRKEARYPLLYSVYSGGDDLFLLGPWDALLDFALDLERLYRLFTRHPRLTLSGGFLLVPPSLPVPELARLLGEAEKRAKAEGRERLFLFGQAVPWETLRGLRAWAEGLRQDLRAERVSRAQVYRWLLLWRRFSPLEDPGERMRYKPLLAYALRRVRERDEEAWKRYLKLLDHQDPAWAYLPVWVQWALYRERRV
notes: Cas10/Csm1 of Thermus thermophilus (locus TTHB147), codon-optimized gene; also called TTHB147; source: E. coli BL21(λDE3), co-expressed with the other Csm subunits, Cas6A and crRNA 4.5; in lysate, and co-purified in the TthCsm complex (Ni-NTA, Superose 6)
For the molecule B1, in experiment [2], the “stoichiometry N” value came to 1.
